Measurements taken from article PMC3907796.

Molecular target: BD-G72(95-153) (UniProt P59103)
Assay: two-hybrid; β-galactosidase activity of AH109 transformants grown in SD/-2 broth at 30 °C, normalised to yeast with the AD and BD tags alone

BD-G72(95-153), sequence (P59103 95-153): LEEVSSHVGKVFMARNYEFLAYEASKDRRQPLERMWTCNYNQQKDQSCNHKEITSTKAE

AD-DAO (D-amino acid oxidase N-terminally tagged with the activation domain) (from UniProt P14920 1-347) (enzyme)
β-galactosidase activity as percent of AD-DAO/BD-G72: 38%
β-galactosidase activity relative to the BD/AD tag baseline: 1.81 fold
